Values of other authors in article PMC7465391, “1,4-Disubstituted 1,2,3-Triazoles as Amide Bond Surrogates for the Stabilisation of Linear Peptides with Biological Activity” (Molecules, 2020).

Biological target: delta opioid receptor (DOPr) (UniProt P41143)
Assay: radioligand

Ki: 6.3 nM
Substance: Leu-enkephalin
